Reference: paper PMC9482650, “Quantitative fragmentomics allow affinity mapping of interactomes” (Nature Communications, 2022)

Legend:
Experiment in all cases: holdup assay
Set-up in all cases: key: below the threshold = too weak to quantify, mostly under pKd 3.1 to 4
ARHGAP21, Q5T5U3 = target: T1, ARHGAP21, Q5T5U3
T1 sequence (Q5T5U3 45-169, limits assumed, looked up): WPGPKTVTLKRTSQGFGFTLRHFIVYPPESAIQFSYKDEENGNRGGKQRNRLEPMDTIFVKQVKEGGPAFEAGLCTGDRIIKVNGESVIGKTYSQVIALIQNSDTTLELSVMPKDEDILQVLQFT

DLG1_2, Q12959 = target: DLG1_2, Q12959
Chain of DLG1_2, Q12959 (Q12959 314-412): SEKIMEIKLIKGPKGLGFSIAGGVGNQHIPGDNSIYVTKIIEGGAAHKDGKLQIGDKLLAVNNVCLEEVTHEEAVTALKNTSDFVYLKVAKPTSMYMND

DLG1_3, Q12959 = target: DLG1_3, Q12959
Chain of DLG1_3, Q12959 (Q12959 457-571): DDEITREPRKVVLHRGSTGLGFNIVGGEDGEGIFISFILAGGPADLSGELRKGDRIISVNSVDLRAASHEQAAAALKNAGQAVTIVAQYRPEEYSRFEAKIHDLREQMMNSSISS

DLG2_2, Q15700 = target: DLG2_2, Q15700
DLG2_3, Q15700 = target: DLG2_3, Q15700
DLG4_3, P78352 = target: DLG4_3, P78352
Chain of DLG4_3, P78352 (P78352 306-403): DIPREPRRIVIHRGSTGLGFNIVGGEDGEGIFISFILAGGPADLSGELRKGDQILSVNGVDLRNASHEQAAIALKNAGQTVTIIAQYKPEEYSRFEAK

FRMPD2_2, Q68DX3 = target: FRMPD2_2, Q68DX3
Chain of FRMPD2_2, Q68DX3 (Q68DX3 944-1038): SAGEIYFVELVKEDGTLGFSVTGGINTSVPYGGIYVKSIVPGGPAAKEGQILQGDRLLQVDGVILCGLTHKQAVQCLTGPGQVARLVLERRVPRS

GIPC2, Q8TF65 = target: GIPC2, Q8TF65
Chain of GIPC2, Q8TF65 (Q8TF65 112-203): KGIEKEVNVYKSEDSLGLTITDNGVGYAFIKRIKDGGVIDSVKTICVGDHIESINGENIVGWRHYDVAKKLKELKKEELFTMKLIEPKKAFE

GOPC, Q9HD26 = target: GOPC, Q9HD26
GRID2IP_1, A4D2P6 = target: GRID2IP_1, A4D2P6
Chain of GRID2IP_1, A4D2P6 (A4D2P6 1-87): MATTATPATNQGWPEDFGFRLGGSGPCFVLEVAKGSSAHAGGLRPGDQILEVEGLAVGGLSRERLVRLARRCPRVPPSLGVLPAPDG

GRIP2_3, Q9C0E4 = target: GRIP2_3, Q9C0E4
Chain of GRIP2_3, Q9C0E4 (Q9C0E4 238-339): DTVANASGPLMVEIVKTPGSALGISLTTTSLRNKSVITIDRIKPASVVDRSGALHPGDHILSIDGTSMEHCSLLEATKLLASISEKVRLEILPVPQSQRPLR

GRIP2_7, Q9C0E4 = target: GRIP2_7, Q9C0E4
Chain of GRIP2_7, Q9C0E4 (Q9C0E4 934-1023): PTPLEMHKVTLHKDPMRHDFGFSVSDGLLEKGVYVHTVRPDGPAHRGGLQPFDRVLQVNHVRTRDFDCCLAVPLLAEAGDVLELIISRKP

HTRA1, Q92743 = target: HTRA1, Q92743
Chain of HTRA1, Q92743 (Q92743 360-477): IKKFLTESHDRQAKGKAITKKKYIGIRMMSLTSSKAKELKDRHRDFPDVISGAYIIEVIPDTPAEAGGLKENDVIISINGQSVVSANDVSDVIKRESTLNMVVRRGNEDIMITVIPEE

Inadl_10, Q8NI35 = target: Inadl_10, Q8NI35
Chain of Inadl_10, Q8NI35 (Q8NI35 1673-1763): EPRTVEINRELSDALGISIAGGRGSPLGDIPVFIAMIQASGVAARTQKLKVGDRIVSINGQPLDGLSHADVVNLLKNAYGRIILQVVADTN

LIN7A, O14910 = target: T2, LIN7A, O14910
T2 sequence (O14910 103-200, limits assumed, looked up): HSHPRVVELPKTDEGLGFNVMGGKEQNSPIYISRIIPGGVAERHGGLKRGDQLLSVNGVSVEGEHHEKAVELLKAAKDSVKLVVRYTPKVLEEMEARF

LRRC7, Q96NW7 = target: T3, LRRC7, Q96NW7
T3 sequence (Q96NW7 1440-1537, limits assumed, looked up): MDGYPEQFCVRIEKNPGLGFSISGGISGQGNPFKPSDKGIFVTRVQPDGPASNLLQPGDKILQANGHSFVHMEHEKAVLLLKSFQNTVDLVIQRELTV

MPDZ_5, O75970 = target: T4, MPDZ_5, O75970
T4 sequence (O75970 695-796, limits assumed, looked up): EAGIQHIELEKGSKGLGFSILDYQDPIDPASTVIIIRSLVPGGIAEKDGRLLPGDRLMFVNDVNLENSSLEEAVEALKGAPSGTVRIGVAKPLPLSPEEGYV

PARD3B_1, Q8TEW8 = target: T5, PARD3B_1, Q8TEW8
T5 sequence (Q8TEW8 196-299, limits assumed, looked up): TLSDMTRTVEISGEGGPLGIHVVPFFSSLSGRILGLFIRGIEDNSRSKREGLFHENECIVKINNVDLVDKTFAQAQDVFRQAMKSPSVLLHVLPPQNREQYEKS

PCLO, Q9Y6V0 = target: T6, PCLO, Q9Y6V0
T6 sequence (Q9Y6V0 4491-4600, limits assumed, looked up): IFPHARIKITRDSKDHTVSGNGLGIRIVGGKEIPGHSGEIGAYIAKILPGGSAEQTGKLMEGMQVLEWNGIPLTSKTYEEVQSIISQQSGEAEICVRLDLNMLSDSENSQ

PDZD7_3, Q9H5P4 = target: T7, PDZD7_3, Q9H5P4
T7 sequence (Q9H5P4 857-944, limits assumed, looked up): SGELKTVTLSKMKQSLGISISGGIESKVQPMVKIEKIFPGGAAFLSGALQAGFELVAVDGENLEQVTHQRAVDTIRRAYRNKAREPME

PTPN13_1, Q12923 = target: T8, PTPN13_1, Q12923
T8 sequence (Q12923 1088-1188, limits assumed, looked up): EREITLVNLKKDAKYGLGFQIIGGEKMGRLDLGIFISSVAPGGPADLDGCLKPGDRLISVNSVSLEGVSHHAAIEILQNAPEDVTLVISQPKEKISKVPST

RAPGEF6, Q8TEU7 = target: T9, RAPGEF6, Q8TEU7
T9 sequence (Q8TEU7 525-625, limits assumed, looked up): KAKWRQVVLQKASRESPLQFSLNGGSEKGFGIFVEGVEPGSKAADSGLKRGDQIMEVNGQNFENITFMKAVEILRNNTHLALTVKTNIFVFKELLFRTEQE

SIPA1L2, Q9P2F8 = target: T10, SIPA1L2, Q9P2F8
T10 sequence (Q9P2F8 945-1036, limits assumed, looked up): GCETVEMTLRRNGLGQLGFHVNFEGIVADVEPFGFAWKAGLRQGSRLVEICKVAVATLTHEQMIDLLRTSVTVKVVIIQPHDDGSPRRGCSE

SNTB1, Q13884 = target: T11, SNTB1, Q13884
T11 sequence (Q13884 107-205, limits assumed, looked up): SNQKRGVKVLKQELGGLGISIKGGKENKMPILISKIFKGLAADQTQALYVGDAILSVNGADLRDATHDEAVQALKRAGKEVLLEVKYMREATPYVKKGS

SYNJ2BP, P57105 = target: T12, SYNJ2BP, P57105
T12 sequence (P57105 8-110, limits assumed, looked up): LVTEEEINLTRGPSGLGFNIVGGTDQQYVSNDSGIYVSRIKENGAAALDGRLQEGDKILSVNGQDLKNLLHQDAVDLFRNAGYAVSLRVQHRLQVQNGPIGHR

[1] = plain residues with an end cap or a label only (N-terminal biotin on a linker: ttds)
[2] = plain residues with an end cap or a label only (N-terminal biotin on a linker: ahx)

Binder: QPGTPTRTAV [MAP2K2, P36507]
- pKd (ARHGAP21, Q5T5U3; [1]): below the threshold
- pKd (DLG1_2, Q12959; [1]): 3.99
- pKd (DLG1_3, Q12959; [1]): below the threshold
- pKd (DLG2_2, Q15700; [1]): 3.87
- pKd (DLG2_3, Q15700; [1]): 3.91
- pKd (DLG4_3, P78352; [1]): below the threshold
- pKd (FRMPD2_2, Q68DX3; [1]): below the threshold
- pKd (GIPC2, Q8TF65; [1]): below the threshold
- pKd (GOPC, Q9HD26; [1]): below the threshold
- pKd (GRID2IP_1, A4D2P6; [1]): below the threshold
- pKd (GRIP2_3, Q9C0E4; [1]): below the threshold
- pKd (GRIP2_7, Q9C0E4; [1]): below the threshold
- pKd (HTRA1, Q92743; [1]): below the threshold
- pKd (Inadl_10, Q8NI35; [1]): below the threshold
- pKd (LIN7A, O14910; [1]): below the threshold
- pKd (LRRC7, Q96NW7; [1]): below the threshold
- pKd (MPDZ_5, O75970; [1]): 3.49
- pKd (PARD3B_1, Q8TEW8; [1]): below the threshold
- pKd (PCLO, Q9Y6V0; [1]): below the threshold
- pKd (PDZD7_3, Q9H5P4; [1]): below the threshold
- pKd (PTPN13_1, Q12923; [1]): 3.66
- pKd (RAPGEF6, Q8TEU7; [1]): 3.67
- pKd (SIPA1L2, Q9P2F8; [1]): below the threshold
- pKd (SNTB1, Q13884; [1]): below the threshold
- pKd (SYNJ2BP, P57105; [1]): below the threshold

Binder: KKNKDKEYYV [NRXN1, Q9ULB1]
- pKd (ARHGAP21, Q5T5U3; [2]): below the threshold
- pKd (DLG1_2, Q12959; [2]): below the threshold
- pKd (DLG1_3, Q12959; [2]): below the threshold
- pKd (DLG2_2, Q15700; [2]): below the threshold
- pKd (DLG2_3, Q15700; [2]): below the threshold
- pKd (DLG4_3, P78352; [2]): below the threshold
- pKd (FRMPD2_2, Q68DX3; [2]): below the threshold
- pKd (GIPC2, Q8TF65; [2]): below the threshold
- pKd (GOPC, Q9HD26; [2]): below the threshold
- pKd (GRID2IP_1, A4D2P6; [2]): below the threshold
- pKd (GRIP2_3, Q9C0E4; [2]): below the threshold
- pKd (GRIP2_7, Q9C0E4; [2]): 4.55
- pKd (HTRA1, Q92743; [2]): 4.84
- pKd (Inadl_10, Q8NI35; [2]): below the threshold
- pKd (LIN7A, O14910; [2]): below the threshold
- pKd (LRRC7, Q96NW7; [2]): below the threshold
- pKd (MPDZ_5, O75970; [2]): 3.85
- pKd (PARD3B_1, Q8TEW8; [2]): below the threshold
- pKd (PCLO, Q9Y6V0; [2]): below the threshold
- pKd (PDZD7_3, Q9H5P4; [2]): below the threshold
- pKd (PTPN13_1, Q12923; [2]): below the threshold
- pKd (RAPGEF6, Q8TEU7; [2]): below the threshold
- pKd (SIPA1L2, Q9P2F8; [2]): below the threshold
- pKd (SNTB1, Q13884; [2]): below the threshold
- pKd (SYNJ2BP, P57105; [2]): below the threshold

Binder: RRVRKLPSTTL [RPS6KA1, Q15418]
- pKd (ARHGAP21, Q5T5U3; [1]): below the threshold
- pKd (DLG1_2, Q12959; [1]): 3.7
- pKd (DLG1_3, Q12959; [1]): 3.63
- pKd (DLG2_2, Q15700; [1]): below the threshold
- pKd (DLG2_3, Q15700; [1]): 3.49
- pKd (DLG4_3, P78352; [1]): below the threshold
- pKd (FRMPD2_2, Q68DX3; [1]): below the threshold
- pKd (GIPC2, Q8TF65; [1]): below the threshold
- pKd (GOPC, Q9HD26; [1]): 4.96
- pKd (GRID2IP_1, A4D2P6; [1]): below the threshold
- pKd (GRIP2_3, Q9C0E4; [1]): below the threshold
- pKd (GRIP2_7, Q9C0E4; [1]): below the threshold
- pKd (HTRA1, Q92743; [1]): 4.09
- pKd (Inadl_10, Q8NI35; [1]): below the threshold
- pKd (LIN7A, O14910; [1]): below the threshold
- pKd (LRRC7, Q96NW7; [1]): 3.55
- pKd (MPDZ_5, O75970; [1]): 3.61
- pKd (PARD3B_1, Q8TEW8; [1]): 4.4
- pKd (PCLO, Q9Y6V0; [1]): below the threshold
- pKd (PDZD7_3, Q9H5P4; [1]): 4.93
- pKd (PTPN13_1, Q12923; [1]): below the threshold
- pKd (RAPGEF6, Q8TEU7; [1]): 3.7
- pKd (SIPA1L2, Q9P2F8; [1]): below the threshold
- pKd (SNTB1, Q13884; [1]): 4.14
- pKd (SYNJ2BP, P57105; [1]): 3.82

Binder: EDEDEQVSAV [RAPGEF2, Q9Y4G8]
- pKd (ARHGAP21, Q5T5U3; [2]): below the threshold
- pKd (DLG1_2, Q12959; [2]): 3.85
- pKd (DLG1_3, Q12959; [2]): below the threshold
- pKd (DLG2_2, Q15700; [2]): below the threshold
- pKd (DLG2_3, Q15700; [2]): below the threshold
- pKd (DLG4_3, P78352; [2]): below the threshold
- pKd (FRMPD2_2, Q68DX3; [2]): 5.03
- pKd (GIPC2, Q8TF65; [2]): 3.81
- pKd (GOPC, Q9HD26; [2]): below the threshold
- pKd (GRID2IP_1, A4D2P6; [2]): below the threshold
- pKd (GRIP2_3, Q9C0E4; [2]): below the threshold
- pKd (GRIP2_7, Q9C0E4; [2]): below the threshold
- pKd (HTRA1, Q92743; [2]): 4.18
- pKd (Inadl_10, Q8NI35; [2]): below the threshold
- pKd (LIN7A, O14910; [2]): below the threshold
- pKd (LRRC7, Q96NW7; [2]): below the threshold
- pKd (MPDZ_5, O75970; [2]): below the threshold
- pKd (PARD3B_1, Q8TEW8; [2]): below the threshold
- pKd (PCLO, Q9Y6V0; [2]): below the threshold
- pKd (PDZD7_3, Q9H5P4; [2]): 3.87
- pKd (PTPN13_1, Q12923; [2]): below the threshold
- pKd (RAPGEF6, Q8TEU7; [2]): below the threshold
- pKd (SIPA1L2, Q9P2F8; [2]): below the threshold
- pKd (SNTB1, Q13884; [2]): 3.87
- pKd (SYNJ2BP, P57105; [2]): 3.49
